From patent US20250101120A1 (BEIJING SOLOBIO GENETECHNOLOGY, published 2025) come the findings set out here.

Test [1] deals with T1, hFc-hFasL (fusion protein of human Fc fragment and human FasL extracellular region) (human, UniProt P48023 134-281).
T1 construct: the order here follows the name hFc-hFasL; also called hFc-FasL; hFc-hFasL antigen; not shown: human Fc fragment tag
T1 sequence: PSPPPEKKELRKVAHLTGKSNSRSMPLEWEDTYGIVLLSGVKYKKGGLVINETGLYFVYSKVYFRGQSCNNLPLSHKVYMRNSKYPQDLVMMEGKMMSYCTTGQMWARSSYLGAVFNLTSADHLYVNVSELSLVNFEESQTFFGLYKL
The experiment in a line: ELISA, hFc-hFasL coated, antibody titrated, anti-human kappa-HRP (protocol of Example 3.2).

Test [2] deals with T1, hFc-hFasL (fusion protein of human Fc …). Briefly: cell-based or functional assay.

B1: humFL-M88-11 (antibody, human IgG4, V domains shown)
VH: QVQLVQSGAEVKKPGASVKVSCKGSGYTFTDYTIHWVRQAPGQGLEWMGVISTYQGDASYNQKFKGRVTMTVDKSTSTVYMELSSLRSEDTAVYYCARFPDWDYAMDYWGQGTLVTVSS
VL: EIVMTQSPATLSVSPGERATLSCKASQSVDYDGDSYMNWYQQKPGQAPRLLIYAASNLESGIPARFSGSGSGTEFTLTISSLQSEDFAVYYCQHSRELPYTFGQGTKLEIK
notes: Humanized FL-M88
For B1, a half-maximal response in test [1] (EC50) required 343 pM.

B2: humFL-M88-17 (antibody, human IgG4, V domains shown)
VH: QVQLVQSGAEVKKPGASVKVSCKGSGYTFTDYTIHWVRQAPGQGLEWMGVISTYQGDASYNQKFKGRVTMTVDKSTSTVYMELSSLRSEDTAVYYCARFPDWDYAMDYWGQGTLVTVSS
VL: EIVMTQSPATLSVSPGERATLSCKASQSVDYDGDSYMNWYQQKPGQPPRLLIYAASNLESGIPARFSGSGSGTEFTLTISSLQSEDFAVYYCQQSRELPYTFGQGTKLEIK
notes: Humanized FL-M88
Turning to B2, in test [1], the concentration giving a half-maximal response (EC50) is 329 pM.

B3: humFL-M54-1 (antibody, human IgG4, V domains shown)
VH: QVQLVQSGAEVKKPGSSVKVSCKASGYTFTRFDISWVRQAPGQGLEWIGWIFPGDGSSQYNENFKGRATLTTDKSTSTAYMELSSLRSEDTAVYFCARSLISTAMFDHWGQGTLVTVSS
VL: EIVMTQSPATLSVSPGERATLSCRASKSVSTSDFSYIHWYQQKPGQPPRLLIFLASHLESGIPARFSGSGSGTEFTLTISSLQSEDFAVYYCQHSRELPRTFGQGTKVEIK
As for B3, in test [2], the “HepG2 IC50(nM), FasL antigen-induced cell apoptosis” value (“HepG2 IC50(nM)” below) is 0.028 nM and the “Jurkat IC50(nM), FasL antigen-induced cell apoptosis” value (“Jurkat IC50(nM)” below) turned out to be 0.035 nM.

B4: humFL-M54-8 (antibody, human IgG4, V domains shown)
VH: QVQLVQSGAEVKKPGSSVKVSCKASGYTFTRFDISWVRQAPGQGLEWMGWIFPGDGSSQYNENFKGRATITTDKSTSTAYMELSSLRSEDTAVYFCARSLISTAMFDHWGQGTLVTVSS
VL: EIVMTQSPATLSVSPGERATLSCRASKSVSTSDFSYIHWYQQKPGQPPRLLIYLASHLESGIPARFSGSGSGTEFTLTISSLQSEDFAVYYCQHSRELPRTFGQGTKVEIK
Consider B4, for which, in test [2], the “HepG2 IC50(nM)” value was 0.025 nM and the “Jurkat IC50(nM)” value amounted to 0.044 nM.

B5: humFL-M54-13 (antibody, human IgG4, V domains shown)
VH: QVQLVQSGAEVKKPGSSVKVSCKASGYTFTRFDISWVRQAPGQGLEWMGWIFPGDGSSQYNENFKGRATITTDKSTSTAYMELSSLRSEDTAVYFCARSLISTAMFDHWGQGTLVTVSS
VL: EIVMTQSPATLSVSPGERATLSCRASKSVSTSDFSYIHWYQQKPGQAPRLLIYLASHLESGIPARFSGSGSGTEFTLTISSLQSEDFAVYYCQHSRELPRTFGQGTKVEIK
As to B5, in test [2], the “HepG2 IC50(nM)” value stood at 0.029 nM and the “Jurkat IC50(nM)” value was 0.028 nM.

B6: humFL-M54-6 (antibody, human IgG4, V domains shown)
VH: QVQLVQSGAEVKKPGSSVKVSCKASGYTFTRFDISWVRQAPGQGLEWIGWIFPGDGSSQYNENFKGRATLTTDKSTSTAYMELSSLRSEDTAVYFCARSLISTAMFDHWGQGTLVTVSS
VL: EIVMTQSPATLSVSPGERATLSCRASKSVSTSDFSYIHWYQQKPGQPPRLLIYLASHLESGIPARFSGSGSGTEFTLTISSLQSEDFAVYYCQHSRELPRTFGQGTKVEIK
Turning to B6, the “HepG2 IC50(nM)” value in test [2] worked out at 0.031 nM.

B7: humFL-M54-11 (antibody, human IgG4, V domains shown)
VH: QVQLVQSGAEVKKPGSSVKVSCKASGYTFTRFDISWVRQAPGQGLEWIGWIFPGDGSSQYNENFKGRATLTTDKSTSTAYMELSSLRSEDTAVYFCARSLISTAMFDHWGQGTLVTVSS
VL: EIVMTQSPATLSVSPGERATLSCRASKSVSTSDFSYIHWYQQKPGQAPRLLIYLASHLESGIPARFSGSGSGTEFTLTISSLQSEDFAVYYCQHSRELPRTFGQGTKVEIK
Regarding B7, in test [2], the “HepG2 IC50(nM)” value was 0.028 nM and the “Jurkat IC50(nM)” value was 0.037 nM.

B8: humFL-M54-3 (antibody, human IgG4, V domains shown)
VH: QVQLVQSGAEVKKPGSSVKVSCKASGYTFTRFDISWVRQAPGQGLEWMGWIFPGDGSSQYNENFKGRATITTDKSTSTAYMELSSLRSEDTAVYFCARSLISTAMFDHWGQGTLVTVSS
VL: EIVMTQSPATLSVSPGERATLSCRASKSVSTSDFSYIHWYQQKPGQPPRLLIFLASHLESGIPARFSGSGSGTEFTLTISSLQSEDFAVYYCQHSRELPRTFGQGTKVEIK
Turning to B8, the “HepG2 IC50(nM)” value in test [2] was found to be 0.035 nM.

B9: humFL-M54-4 (antibody, human IgG4, V domains shown)
VH: QVQLVQSGAEVKKPGSSVKVSCKASGYTFTRFDISWVRQAPGQGLEWMGWIFPGDGSSQYNENFKGRVTLTTDKSTSTAYMELSSLRSEDTAVYFCARSLISTAMFDHWGQGTLVTVSS
VL: EIVMTQSPATLSVSPGERATLSCRASKSVSTSDFSYIHWYQQKPGQPPRLLIFLASHLESGIPARFSGSGSGTEFTLTISSLQSEDFAVYYCQHSRELPRTFGQGTKVEIK
Take B9: in test [2], the “HepG2 IC50(nM)” value was 0.03 nM and the “Jurkat IC50(nM)” value turned out to be 0.053 nM.

B10: humFL-M54-7 (antibody, human IgG4, V domains shown)
VH: QVQLVQSGAEVKKPGSSVKVSCKASGYTFTRFDISWVRQAPGQGLEWMGWIFPGDGSSQYNENFKGRATLTTDKSTSTAYMELSSLRSEDTAVYFCARSLISTAMFDHWGQGTLVTVSS
VL: EIVMTQSPATLSVSPGERATLSCRASKSVSTSDFSYIHWYQQKPGQPPRLLIYLASHLESGIPARFSGSGSGTEFTLTISSLQSEDFAVYYCQHSRELPRTFGQGTKVEIK
For B10, in test [2], the “HepG2 IC50(nM)” value worked out at 0.028 nM and the “Jurkat IC50(nM)” value amounted to 0.059 nM.

B11: humFL-M54-9 (antibody, human IgG4, V domains shown)
VH: QVQLVQSGAEVKKPGSSVKVSCKASGYTFTRFDISWVRQAPGQGLEWMGWIFPGDGSSQYNENFKGRVTLTTDKSTSTAYMELSSLRSEDTAVYFCARSLISTAMFDHWGQGTLVTVSS
VL: EIVMTQSPATLSVSPGERATLSCRASKSVSTSDFSYIHWYQQKPGQPPRLLIYLASHLESGIPARFSGSGSGTEFTLTISSLQSEDFAVYYCQHSRELPRTFGQGTKVEIK
Consider B11, for which, in test [2], the “HepG2 IC50(nM)” value came out at 0.026 nM and the “Jurkat IC50(nM)” value is 0.035 nM.

B12: humFL-M54-5 (antibody, human IgG4, V domains shown)
VH: QVQLVQSGAEVKKPGSSVKVSCKASGYTFTRFDISWVRQAPGQGLEWMGWIFPGDGSSQYNENFKGRVTITADKSTSTAYMELSSLRSEDTAVYFCARSLISTAMFDHWGQGTLVTVSS
VL: EIVMTQSPATLSVSPGERATLSCRASKSVSTSDFSYIHWYQQKPGQPPRLLIFLASHLESGIPARFSGSGSGTEFTLTISSLQSEDFAVYYCQHSRELPRTFGQGTKVEIK
As for B12, in test [2], the “HepG2 IC50(nM)” value is 0.027 nM and the “Jurkat IC50(nM)” value is 0.052 nM.

B13: humFL-M54-15 (antibody, human IgG4, V domains shown)
VH: QVQLVQSGAEVKKPGSSVKVSCKASGYTFTRFDISWVRQAPGQGLEWMGWIFPGDGSSQYNENFKGRVTITADKSTSTAYMELSSLRSEDTAVYFCARSLISTAMFDHWGQGTLVTVSS
VL: EIVMTQSPATLSVSPGERATLSCRASKSVSTSDFSYIHWYQQKPGQAPRLLIYLASHLESGIPARFSGSGSGTEFTLTISSLQSEDFAVYYCQHSRELPRTFGQGTKVEIK
B13: in test [2], the “HepG2 IC50(nM)” value stood at 0.03 nM and the “Jurkat IC50(nM)” value worked out at 0.015 nM.

B14: humFL-M54-10 (antibody, human IgG4, V domains shown)
VH: QVQLVQSGAEVKKPGSSVKVSCKASGYTFTRFDISWVRQAPGQGLEWMGWIFPGDGSSQYNENFKGRVTITADKSTSTAYMELSSLRSEDTAVYFCARSLISTAMFDHWGQGTLVTVSS
VL: EIVMTQSPATLSVSPGERATLSCRASKSVSTSDFSYIHWYQQKPGQPPRLLIYLASHLESGIPARFSGSGSGTEFTLTISSLQSEDFAVYYCQHSRELPRTFGQGTKVEIK
As to B14, in test [2], the “HepG2 IC50(nM)” value was 0.034 nM and the “Jurkat IC50(nM)” value was 0.017 nM.

B15: humFL-M54-14 (antibody, human IgG4, V domains shown)
VH: QVQLVQSGAEVKKPGSSVKVSCKASGYTFTRFDISWVRQAPGQGLEWMGWIFPGDGSSQYNENFKGRVTLTTDKSTSTAYMELSSLRSEDTAVYFCARSLISTAMFDHWGQGTLVTVSS
VL: EIVMTQSPATLSVSPGERATLSCRASKSVSTSDFSYIHWYQQKPGQAPRLLIYLASHLESGIPARFSGSGSGTEFTLTISSLQSEDFAVYYCQHSRELPRTFGQGTKVEIK
Turning to B15, in test [2], the “HepG2 IC50(nM)” value came out at 0.023 nM and the “Jurkat IC50(nM)” value was 0.038 nM.

B16: humFL-M54-12 (antibody, human IgG4, V domains shown)
VH: QVQLVQSGAEVKKPGSSVKVSCKASGYTFTRFDISWVRQAPGQGLEWMGWIFPGDGSSQYNENFKGRATLTTDKSTSTAYMELSSLRSEDTAVYFCARSLISTAMFDHWGQGTLVTVSS
VL: EIVMTQSPATLSVSPGERATLSCRASKSVSTSDFSYIHWYQQKPGQAPRLLIYLASHLESGIPARFSGSGSGTEFTLTISSLQSEDFAVYYCQHSRELPRTFGQGTKVEIK
In the case of B16, in test [2], the “HepG2 IC50(nM)” value amounted to 0.032 nM and the “Jurkat IC50(nM)” value amounted to 0.015 nM.

B17: humFL-M54-2 (antibody, human IgG4, V domains shown)
VH: QVQLVQSGAEVKKPGSSVKVSCKASGYTFTRFDISWVRQAPGQGLEWMGWIFPGDGSSQYNENFKGRATLTTDKSTSTAYMELSSLRSEDTAVYFCARSLISTAMFDHWGQGTLVTVSS
VL: EIVMTQSPATLSVSPGERATLSCRASKSVSTSDFSYIHWYQQKPGQPPRLLIFLASHLESGIPARFSGSGSGTEFTLTISSLQSEDFAVYYCQHSRELPRTFGQGTKVEIK
As for B17, in test [2], the “HepG2 IC50(nM)” value was 0.031 nM and the “Jurkat IC50(nM)” value is 0.028 nM.
